Laboratory results published in PMC7508794, “IRES-targeting small molecule inhibits enterovirus 71 replication via allosteric stabilization of a ternary complex”.

How the values were obtained:
AUF1-RRM1,2 [1] = molecular target: T1, AUF1-RRM1,2 (UniProt Q14103-4 70-239); assay: ITC; DMA-001, RNA:DMA 1:5; ITC: 10 mM K2HPO4, 20 mM KCl, 0.5 mM EDTA, 4 mM BME, pH 6.5, 25 C; lysate pull-down: 5 mM HEPES pH 7.1, 40 mM KCl, 0.1 mM EDTA, 2 mM MgCl2, 2 mM DTT, 0.25 mg/ml heparin, 30 C; details: protein: recombinant; tags: N-terminal His6, cleaved with TEV; hairpin with 5-nt bulge and 7-nt apical loop
T1 sequence (Q14103 other isoform, or with tags, fused parts or gaps): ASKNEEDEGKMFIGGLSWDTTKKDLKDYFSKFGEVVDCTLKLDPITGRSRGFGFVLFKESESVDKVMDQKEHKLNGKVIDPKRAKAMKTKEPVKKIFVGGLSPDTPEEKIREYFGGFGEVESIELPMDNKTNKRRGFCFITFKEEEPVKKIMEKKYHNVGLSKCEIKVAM

AUF1-RRM1,2 [2] = molecular target: T1, AUF1-RRM1,2; assay: ITC; DMA-155, RNA:DMA 1:5; ITC: 10 mM K2HPO4, 20 mM KCl, 0.5 mM EDTA, 4 mM BME, pH 6.5, 25 C; lysate pull-down: 5 mM HEPES pH 7.1, 40 mM KCl, 0.1 mM EDTA, 2 mM MgCl2, 2 mM DTT, 0.25 mg/ml heparin, 30 C; details: protein: recombinant; tags: N-terminal His6, cleaved with TEV; hairpin with 5-nt bulge and 7-nt apical loop
AUF1-RRM1,2 [3] = molecular target: T1, AUF1-RRM1,2; assay: ITC; DMA-135, RNA:DMA 1:1.6; ITC: 10 mM K2HPO4, 20 mM KCl, 0.5 mM EDTA, 4 mM BME, pH 6.5, 25 C; lysate pull-down: 5 mM HEPES pH 7.1, 40 mM KCl, 0.1 mM EDTA, 2 mM MgCl2, 2 mM DTT, 0.25 mg/ml heparin, 30 C; details: protein: recombinant; tags: N-terminal His6, cleaved with TEV; hairpin with 5-nt bulge and 7-nt apical loop
AUF1-RRM1,2 [4] = molecular target: T1, AUF1-RRM1,2; assay: ITC; DMA-135, RNA:DMA 1:5; ITC: 10 mM K2HPO4, 20 mM KCl, 0.5 mM EDTA, 4 mM BME, pH 6.5, 25 C; lysate pull-down: 5 mM HEPES pH 7.1, 40 mM KCl, 0.1 mM EDTA, 2 mM MgCl2, 2 mM DTT, 0.25 mg/ml heparin, 30 C; details: protein: recombinant; tags: N-terminal His6, cleaved with TEV; hairpin with 5-nt bulge and 7-nt apical loop
AUF1-RRM1,2 [5] = molecular target: T1, AUF1-RRM1,2; assay: ITC; DMA-135, RNA:DMA 1:3.3; ITC: 10 mM K2HPO4, 20 mM KCl, 0.5 mM EDTA, 4 mM BME, pH 6.5, 25 C; lysate pull-down: 5 mM HEPES pH 7.1, 40 mM KCl, 0.1 mM EDTA, 2 mM MgCl2, 2 mM DTT, 0.25 mg/ml heparin, 30 C; details: protein: recombinant; tags: N-terminal His6, cleaved with TEV; hairpin with 5-nt bulge and 7-nt apical loop
AUF1-RRM1,2 [6] = molecular target: T1, AUF1-RRM1,2; assay: ITC; no small molecule; ITC: 10 mM K2HPO4, 20 mM KCl, 0.5 mM EDTA, 4 mM BME, pH 6.5, 25 C; lysate pull-down: 5 mM HEPES pH 7.1, 40 mM KCl, 0.1 mM EDTA, 2 mM MgCl2, 2 mM DTT, 0.25 mg/ml heparin, 30 C; details: protein: recombinant; tags: N-terminal His6, cleaved with TEV; hairpin with 5-nt bulge and 7-nt apical loop
A1-RRM1,2 (UP1) = A1-RRM1,2 (UP1) (UniProt P09651 1-196); assay: as above; details: protein: recombinant; tags: C-terminal His6; hairpin with 5-nt bulge and 7-nt apical loop
A1-RRM1,2 (UP1), sequence (P09651 1-196): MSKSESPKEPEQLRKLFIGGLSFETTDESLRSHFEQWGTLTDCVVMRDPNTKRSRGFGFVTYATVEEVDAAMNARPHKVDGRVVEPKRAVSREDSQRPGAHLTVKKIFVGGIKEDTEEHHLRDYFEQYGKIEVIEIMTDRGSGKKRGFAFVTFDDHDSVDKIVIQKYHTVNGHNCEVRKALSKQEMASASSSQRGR

GGAUCAAUAGCAGGUGUGGCACACCAGUCAUACCUUGAUCC (structured_RNA) [EV71 SLII (SLII2231)]
Kd (AUF1-RRM1,2 [1]): 306 ± 4 nM | Kd (AUF1-RRM1,2 [2]): 390 ± 7 nM | Kd (AUF1-RRM1,2 [3]): 240 ± 72 nM | Kd (AUF1-RRM1,2 [4]): 134 ± 7 nM | Kd (AUF1-RRM1,2 [5]): 140 ± 2 nM | Kd (AUF1-RRM1,2 [6]): 336 ± 44 nM | binding result (A1-RRM1,2 (UP1)): binds
